Literature values, collected in PMC6005205.
pKd: −log10 of the molar value.

Target: ACKR3 (Homo sapiens) (UniProt P25106)
Sequence of UniProt P25106 (P25106 whole entry): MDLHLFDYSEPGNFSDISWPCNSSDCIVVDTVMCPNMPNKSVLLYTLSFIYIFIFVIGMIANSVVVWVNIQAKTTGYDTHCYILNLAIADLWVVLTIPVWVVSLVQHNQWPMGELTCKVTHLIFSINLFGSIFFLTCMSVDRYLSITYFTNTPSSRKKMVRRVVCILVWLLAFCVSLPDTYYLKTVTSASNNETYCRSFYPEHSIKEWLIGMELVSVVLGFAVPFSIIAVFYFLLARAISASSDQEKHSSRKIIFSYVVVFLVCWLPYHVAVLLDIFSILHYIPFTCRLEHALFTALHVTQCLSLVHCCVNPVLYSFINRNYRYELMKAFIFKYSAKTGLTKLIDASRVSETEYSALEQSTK

pKd: 9.70
Substance: adrenomedullin (from UniProt P35318)
